Data published in patent US20200148765A1 (OSAKA UNIVERSITY, published 2020).

T1: mouse CLDN-5 protein (mouse, UniProt O54942 1-218)
T1 construct: Expressed on cells by retrovirus; also called mCLDN-5; MDCKII/mCLDN-5
T1 sequence: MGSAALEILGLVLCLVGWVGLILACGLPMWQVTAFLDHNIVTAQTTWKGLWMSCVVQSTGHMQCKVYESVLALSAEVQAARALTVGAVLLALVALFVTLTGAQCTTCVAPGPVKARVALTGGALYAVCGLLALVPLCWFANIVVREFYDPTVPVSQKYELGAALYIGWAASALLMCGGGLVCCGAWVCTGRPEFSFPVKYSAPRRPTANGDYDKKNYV

T2: mCLDN-2 protein (mouse, UniProt O88552 1-230)
T2 construct: Expressed on cells by retrovirus; also called mouse Claudin-2 protein
T2 sequence: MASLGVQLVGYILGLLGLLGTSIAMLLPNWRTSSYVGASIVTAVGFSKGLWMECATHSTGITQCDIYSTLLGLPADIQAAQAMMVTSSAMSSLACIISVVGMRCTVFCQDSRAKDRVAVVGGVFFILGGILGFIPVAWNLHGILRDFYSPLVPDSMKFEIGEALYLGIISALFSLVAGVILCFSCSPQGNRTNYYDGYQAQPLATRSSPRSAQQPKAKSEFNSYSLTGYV

T3: mCLDN-3 protein (mouse, UniProt Q9Z0G9 1-219)
T3 construct: Expressed on cells by retrovirus; also called mouse Claudin-3 protein
T3 sequence: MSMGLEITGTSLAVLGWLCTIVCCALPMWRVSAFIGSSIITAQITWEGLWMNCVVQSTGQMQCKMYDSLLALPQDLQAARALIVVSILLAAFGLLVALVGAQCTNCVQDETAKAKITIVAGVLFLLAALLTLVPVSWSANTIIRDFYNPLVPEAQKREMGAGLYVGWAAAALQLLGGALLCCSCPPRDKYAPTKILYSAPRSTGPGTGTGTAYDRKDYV

T4: mCLDN-1 protein (mouse, UniProt O88551 1-211)
T4 construct: Expressed on cells by retrovirus; also called mouse Claudin-1 protein
T4 sequence: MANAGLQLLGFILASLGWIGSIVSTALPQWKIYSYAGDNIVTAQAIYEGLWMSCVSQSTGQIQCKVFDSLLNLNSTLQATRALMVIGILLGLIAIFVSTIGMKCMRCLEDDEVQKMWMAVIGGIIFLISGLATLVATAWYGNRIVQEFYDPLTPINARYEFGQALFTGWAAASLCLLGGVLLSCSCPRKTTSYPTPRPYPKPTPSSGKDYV

T5: wild-type human CLDN-5 protein (human, UniProt O00501 1-218)
T5 construct: Four-transmembrane tight junction protein expressed by retrovirus on HT-1080 (or MDCKII) cells; also called hCLDN-5; human Claudin-5 protein
T5 sequence: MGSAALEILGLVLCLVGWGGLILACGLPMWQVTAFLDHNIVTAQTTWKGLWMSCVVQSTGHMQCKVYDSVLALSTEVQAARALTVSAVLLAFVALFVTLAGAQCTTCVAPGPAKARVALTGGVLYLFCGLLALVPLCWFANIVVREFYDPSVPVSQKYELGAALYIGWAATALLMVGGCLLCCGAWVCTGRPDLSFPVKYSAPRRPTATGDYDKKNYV

T6: crab-eating macaque CLDN-5 protein (crab-eating macaque, UniProt O00501 1-218 (human entry))
T6 construct: Expressed on cells by retrovirus; also called cCLDN-5; MDCKII/cCLDN-5
T6 chain: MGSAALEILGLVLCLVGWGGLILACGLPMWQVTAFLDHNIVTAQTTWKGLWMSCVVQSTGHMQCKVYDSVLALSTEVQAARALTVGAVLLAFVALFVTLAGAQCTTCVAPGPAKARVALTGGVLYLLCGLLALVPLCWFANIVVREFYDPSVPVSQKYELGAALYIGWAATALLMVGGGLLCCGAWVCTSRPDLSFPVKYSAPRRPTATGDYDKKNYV


How the values were obtained:
mouse CLDN-5 protein = molecular target: T1, mouse CLDN-5 protein; test: FACS, hybridoma supernatant on CLDN-expressing cells
Excerpt: (§1) By the insertion of a DNA fragment consisting of an hCLDN-1 protein (SEQ ID NO: 30)-encoding sequence, an hCLDN-2 protein (SEQ ID NO: 31)-encoding sequence, an hCLDN-3 protein (SEQ ID NO 32)-encoding sequence, an hCLDN-4 protein (SEQ ID NO: 33)-encoding sequence, an hCLDN-6 protein (SEQ ID NO: 34)-encoding sequence, an hCLDN-7 protein (SEQ ID NO: 35)-encoding sequence, an mCLDN-1 protein (SEQ ID NO: 37)-encoding sequence, an mCLDN-2 protein (SEQ ID NO: 38)-encoding sequence, an mCLDN-3 protein (SEQ ID NO: 39)—encoding sequence, or an mCLDN-5 protein (SEQ ID NO: 29)-encoding sequence, vectors for preparing a retrovirus were obtained. By using these vectors and the vector for preparing a retrovirus prepared in Example 1-2), various CLDN protein-expressing cells were prepared. By using these cells and a culture supernatant of hybridomas producing antibodies as primary antibodies, FACS assay was performed by the following method.
(§2) The obtained CLDN-expressing cells were seeded in a 10 cm dish, and on the next day, the cells were collected. The primary antibodies (100 μL) were added to the obtained 1.0×10⁵ cells and allowed to react for 1 hour at 4° C. At this time, a mixed solution of a C-CPE mutant (C-CPEmt) and a mouse anti-His tag antibody (Abeam) used in Non-Patent Literature 3 was used as positive control. The cells were washed three times with 0.2% BSA-PBS, then mixed with 100 μL of a secondary antibody solution (FITC conjugated goat anti-mouse IgG or anti-rat IgG (Jackson Immune Research, 115-095-003 or 112-095-003) 400x diluted with 1% BSA-PBS, and allowed to react for 1 hour at 4° C. The cells were washed with 0.2% BSA-TBS and then analyzed using FACS caliber (BD Bioscience).

mCLDN-2 protein = molecular target: T2, mCLDN-2 protein; test: as above
Excerpt: as §1, §2

mCLDN-3 protein = molecular target: T3, mCLDN-3 protein; test: as above
Excerpt: as §1, §2

mCLDN-1 protein = molecular target: T4, mCLDN-1 protein; test: as above
Excerpt: as §1, §2

[1] = molecular target: T5, wild-type human CLDN-5 protein; test: as above
Excerpt: as §1, §2

[2] = molecular target: T6, crab-eating macaque CLDN-5 protein; test: FACS on CLDN-5-expressing cells, antibody 5 µg/mL
Procedure: as §2
In the same manner as in Example 1-2), a DNA fragment consisting of a cCLDN-5 protein (SEQ ID NO: 28)-encoding sequence or an mCLDN-5 protein (SEQ ID NO: 29)-encoding sequence was inserted into a pCX4pur vector, thereby obtaining vectors for preparing a retrovirus. By using these vectors with the vector for preparing a retrovirus prepared in Example 1-2), various animal species CLDN-5 protein-expressing cells were prepared. By using these cells and the antibodies (antibody concentration: 5 μg/mL, as primary antibody), FACS assay was performed in the same manner as in 3-1).

binding result (mouse CLDN-5 protein)	binding result (mCLDN-2 protein)	binding result (mCLDN-3 protein)	binding result (mCLDN-1 protein)	binding result [1]	binding result [2]	Binder
no binding	no binding	no binding	no binding	binds	binds	rat anti-CLDN-5 antibody R28 (antibody, rat IgG2a, V domains shown, Hybridoma monoclonal; also called antibody M) VH: EVQLVESGGGLVQPGRSLKLSCAASGFTFSDYFMAWVRQAPKKGLEWVASINYEGSRTYYGDSVKDRFTISRDNTKTTLYLQMTSLRSEDTATYYCARHPRRYFDFWGQGVMVTVSS VL: DIVMTQSPSSLAVSAGETVTINCKSSRSLFSSGYQENYLAWYQQKPGQSPKMLIYLASTRESGVPDRFIGSGSGTDFTLTINTLQAEDLAIYYCQQHYDIPYTFGAGTKLEL
no binding	no binding	no binding	no binding	binds	binds	rat anti-CLDN-5 antibody R11 (antibody, rat IgG2b, V domains shown, Hybridoma monoclonal; also called antibody J) VH: EVQLVESGGGLVQPGRSRKLSCAASGFTFNNYGMAWVRQAPTKGLEWVASITNSGYTTYYRDSVKGRFTISRDNAKNALYLQMDSLRSEDTATYYCTTGGYGGYFPLFDYWGHGVMVTVSS VL: DVVMTQTPVSLSVSLGGQTSISCRSSQSLFHSDGNTYLYWYLRKPGQSPQLLIYKVSNRFSGVPDRFSGSGSGTDFTLKISRVEPEDLGLYYCYQGTHYPPTFGSGTKLEI

Further lines, the binder ahead of its results:

Binder	binding result (mouse CLDN-5 protein)	binding result (mCLDN-2 protein)	binding result (mCLDN-3 protein)	binding result (mCLDN-1 protein)	binding result [1]	binding result [2]
rat anti-CLDN-5 antibody R20 (antibody, rat IgG2a, V domains shown, Hybridoma monoclonal; also called antibody L) VH: EVQLVESGGGLVQPGRSMKLSCAVSGFTFSDYYMAWVRQAPKKGLEWVASISYEGRNTYYGDSVKGRFTISRDNAKNTLYLQMNSLRSEDTATYYCARHPRRYFDFWGPGTMVTVSS VL: DIVMTQSPSSLAVSAGETVTINCKSSQSLLFSGDQENHLAWYQQKAGQSAKLLIYWASTRESGVPDRFIGSGSGADFTLTISSMQAEDRATYYCQQNYDIPYTFGAGTKLEL	no binding	no binding	no binding	no binding	binds	binds
rat anti-CLDN-5 antibody R8 (antibody, rat IgG2b, V domains shown, Hybridoma monoclonal; also called antibody H) VH: VKVVESGGGLVQPGRSMKLSCAASGFTFSDYFMAWVRQSPKKGLEWVASINYGGSRTYYEDSVKGRFTISRDNAKSTLYLQMNSLRSEDTATYYCARHPHRLFDYWGQGVMVTVSS VL: DIVMTQSPSFLAVSVGETVTINCKSSQSFLSSGNQENYLAWYQQKPGQSPKLLIHLASTRESGVPDRFIGSGSGTDFTLTISSMQAEDVAIYYCQQHYDIPYTFGAGTKLEL	no binding	no binding	no binding	no binding	binds	binds
mouse anti-CLDN-5 antibody M29 (antibody, mouse IgG3, V domains shown, Hybridoma monoclonal; also called antibody D) VH: EVQLVESGGGLVQPKGSLKLSCAASGFTFNIYAMHWVRQAPGKGLEWVARIRSKSSNYATYYVDSVKDRFIISRDDSQSMLYLQVNNLKTEDTAMYYCVREGNWDCFDYWGQGTTLTVSS VL: DIVMSQSPSSLPVSVGQKVTMTCKSSQSLLYTSNQKNYLAWYQQKPGQSPKLLIYWASTRESGVPDRFTGSGSGTDFTLTISSVKAEDLAIYYCQQYYRYHTFGGGTRLEIK	no binding	no binding	no binding	no binding	binds	binds
